pEC50: −log10 of the molar value.
Columns and labels:
His6-BFL-1ΔC C4S/C19S = His6-BFL-1ΔC C4S/C19S (UniProt Q16548); assay: fluorescence polarisation
[1] = biological target: BFL-1ΔC C4S/C19S conjugated to 4E14 at C55 (UniProt Q16548); assay: fluorescence polarisation

FITC-BID BH3 peptide
pEC50 (His6-BFL-1ΔC C4S/C19S): 7.64 | pEC50 [1]: 5.89
